Molecular target: biotin-labeled HA peptide
Experiment: SPR (OpenSPR), biotin-labeled HA peptide on a Streptavidin chip, purified FB-GFP in solution, one-to-one model, two independent experiments

In the case of “purified recombinant HA frankenbody fused with mEGFP and a hexahistidine tag (purified FB-GFP, from E. coli) (scFv)”, the Kd is reported as 14.7 nM.

Reference: patent publication US20200102373A1
